Results reported in PMC5143164 (Structure (London, England : 1993), 2016).
Where two headings read alike, the source gives them in different places.

B1: Rasip1 RA domain (residues 134-285) (domain or fragment, human, UniProt Q5U651 134-285, looked up)
chain: EPPLATRATAPPGVLKIFGAGLASGANYKSVLATARSTARELVAEALERYGLAGSPGGGPGESSCVDAFALCDALGRPAAAGVGSGEWRAEHLRVLGDSERPLLVQELWRARPGWARRFELRGREEARRLEQEAFGAADSEGTGAPSWRPQK
B2: Rap1B (residues 1-167), GMP-PNP bound (domain or fragment, human, UniProt P61224 1-167, looked up)
chain: MREYKLVVLGSGGVGKSALTVQFVQGIFVEKYDPTIEDSYRKQVEVDAQQCMLEILDTAGTEQFTAMRDLYMKNGQGFALVYSITAQSTFNDLQDLREQILRVKDTDDVPMILVGNKCDLEDERVVGKEQGQNLARQWNNCAFLESSAKSKINVNEIFYDLVRQINR
B3: Radil RA domain (residues 51-193) (domain or fragment, human, UniProt Q96JH8 51-193, looked up)
chain: DPAELSTQLSAPGVLKVFGDSVCTGTHYKSVLATGTSSARELVKEALERYALDPRQAGQYVLCDVVGQAGDAGQRWQARCFRVFGDSEKPLLIQELWKPREGLSRRFELRKRSDVEELAAKEVDTITAGINAQARRLQRSRAK

How the values were obtained:
NMR linewidths = biological target: the molecule itself; experiment: NMR linewidths
[1] = biological target: B2; experiment: ITC
[2] = biological target: HRas (residues 1-189), GMP-PNP bound (human, UniProt P01112 1-189); experiment: ITC
Chain of HRas (residues 1-189), GMP-PNP bound (P01112 whole entry, the tested form may be a part): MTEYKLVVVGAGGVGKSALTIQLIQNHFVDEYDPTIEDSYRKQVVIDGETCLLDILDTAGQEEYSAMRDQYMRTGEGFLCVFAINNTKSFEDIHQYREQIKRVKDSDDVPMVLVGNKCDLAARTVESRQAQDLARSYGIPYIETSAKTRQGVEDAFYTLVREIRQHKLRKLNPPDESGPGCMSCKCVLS

[3] = biological target: B2; experiment: ITC; remark: listed apart in the source
[4] = biological target: B1; experiment: ITC
[5] = biological target: B3; experiment: ITC
[6] = biological target: B2; experiment: crystal structure
crystal structure = biological target: the molecule itself; experiment: crystal structure

Question: Does B1 bind (NMR linewidths)?
Answer: Result: binds

Question: And the Kd [1]?
Answer: The Kd was 900 nM.

Question: What about the Kd [2] of the same binder?
Answer: The Kd was 2200 nM.

Question: What about the Kd [3] of the same binder?
Answer: The Kd was 770 ± 90 nM.

Question: What does the source list for B2?
Answer: dH [4]: -3.4 kcal/mol; stoichiometry N [4]: 1.22; dH [5]: -6.5 kcal/mol; stoichiometry N [5]: 1.04

Question: For B3, which Kd [1] is on record?
Answer: The Kd was 1200 nM.

Question: What about the Kd [2] of the same binder?
Answer: Its Kd is 3900 nM.

B4: trypsin-treated Rasip1 RA domain (domain or fragment, human, UniProt Q5U651 141-285, looked up)
chain: ATAPPGVLKIFGAGLASGANYKSVLATARSTARELVAEALERYGLAGSPGGGPGESSCVDAFALCDALGRPAAAGVGSGEWRAEHLRVLGDSERPLLVQELWRARPGWARRFELRGREEARRLEQEAFGAADSEGTGAPSWRPQK
Question: What does the source list for B4?
Answer: binding result [6]: binds; binding result (crystal structure): binds
